± gives the uncertainty stated by the source.
B1: library; numbered along this chain (parent)
chain: MEVVDPQQLGMFTEGELMSVGMDTFIHRIDSTEVIYQPRRKRAKLIGKYLMGDLLGEGSYGKVKEVLDSETLCRRAVKILKKKKLRRIPNGEANVKKEIQLLRRLRHKNVIQLVDVLYNEEKQKMYMVMEYCVCGMQEMLDSVPEKRFPVCQAHGYFCQLIDGLEYLHSQGIVHKDIKPGNLLLTTGGTLKISDLGVAEALHPFAADDTCRTSQGSPAFQPPEIANGLDTFSGFKVDIWSAGVTLYNITTGLYPFEGDNIYKLFENIGKGSYAIPGDCGPPLSDLLKGMLEYEPAKRFSIRQIRQHSWFRKKHPPAEAPVPIPPSPDTKDRWRSMTVVPYLEDLHGADEDEDLFDIEDDIIYTQDFTVPGQVPEEEASHNGQRRGLPKAVCMNGTEAAQLSTKSRAEGRAPNPARKACSASSKIRRLSACKQQ

Variants of: B1
Assay: STK11 functional score (HeLa growth suppression), rescaled enrichment; synonymous median = 1, nonsense median = 0 (normalised score)
Details: with HeLa; variant type: missense
Protocol: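 Deep mutational scan (TileSeq/POPCode codon randomisation) of full-length codon-optimised STK11 cDNA integrated at a Bxb1 landing pad (AAVS1) in HeLa cells. Restoring functional STK11 suppresses HeLa proliferation. Variant frequencies were measured by NGS before and after about two weeks of growth. The error-corrected enrichment log-ratio was rescaled so that synonymous median = 1 and nonsense median = 0, scores above 1 were compressed, and codon-level and three biological replicate scores were combined; error is the bootstrapped standard error. Scale: synonymous median = 1, nonsense median = 0; below 0.5 = damaging.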

Variant	STK11 functional score
MEVVDPQQLGMFTEGELMSVGMDTFIHRIDSTEVIYQPRRKRAKLIGKYLMGDLLGEGSYGKVKEVLDSETLCRRAVKILKKKKLRRIPNGEANVKKEIQLLRRLRHKNVIQLVDVLYNEEKQKMYMVMEYCVCGMQEMLDSVPEKRFPVCQAHGYFCQLIDGLEYLHSQGIVHKDIKPGNLLLTTGGTLKISDLGVAEALHPFAADDTCRTSQGSPAFQPPEIANGLDFFSGFKVDIWSAGVTLYNITTGLYPFEGDNIYKLFENIGKGSYAIPGDCGPPLSDLLKGMLEYEPAKRFSIRQIRQHSWFRKKHPPAEAPVPIPPSPDTKDRWRSMTVVPYLEDLHGADEDEDLFDIEDDIIYTQDFTVPGQVPEEEASHNGQRRGLPKAVCMNGTEAAQLSTKSRAEGRAPNPARKACSASSKIRRLSACKQQ [T230F]	0.961 ± 0.1
MEVVDPQQLGMFTEGELMSVGMDTFIHRIDSTEVIYQPRRKRAKLIGKYLMGDLLGEGSYGKVKEVLDSETLCRRAVKILKKKKLRRIPNGEANVKKEIQLLRRLRHKNVIQLVDVLYNEEKQKMYMVMEYCVCGMQEMLDSVPEKRFPVCQAHGYFCQLIDGLEYLHSQGIVHKDIKPGNLLLTTGGTLKISDLGVAEALHPFAADDTCRTSQGSPAFQPPEIANGLDTFSGFKVDIWSAGVTLYNITTGLYPFEGDNIYKLFENIGKGSYAIPGDCGPPLSDLLKGMLEYEPAKRFSIRQIRQHSWFRKKHPPAEAPVPIPPSPDTKDRWRSMTVVPYLEDLHGADEDEDLSDIEDDIIYTQDFTVPGQVPEEEASHNGQRRGLPKAVCMNGTEAAQLSTKSRAEGRAPNPARKACSASSKIRRLSACKQQ [F354S]	1.34 ± 0.26
MEVVDPQQLGMFTEGELMSVGMDTFIHRIDSTEVIYQPRRKRAKLIGKYLMGDLLGEGSYGKVKEVLDSETLCRRAVKILKKKKLRRIPNGEANVKKEIQLLRRLRHKNVIQLVDVLYNEEKQKMYMVMEYCVCGMQEMLDSVPEKRFPVCQAHGYFCQLIDGLEYLHSQGIVHKDIKPGNLLLTTGGTLKISDLGVAEALHPFAADDTCRTSQGSPAFQPPEIANGLDTFSGFKVDIWSAGVTLYNITTGLYPFEGDNIYKLFENIGKGSYAIPGDCGPPLSDLLKGMLEYEPAKRFSIRQIRQHSWFRKKHPPAEAPVPIPPSPDTKDRWRSMTVVPYLEDLHGADEDEDLFDIEDDIIYTQDATVPGQVPEEEASHNGQRRGLPKAVCMNGTEAAQLSTKSRAEGRAPNPARKACSASSKIRRLSACKQQ [F366A]	0.753 ± 0.65
MEVVDPQQLGMFTEGELMSVGMDTFIHRIDSTEVIYQPRRKRAKLIGKYLMGDLLGEGSYGKVKEVLDSETLCRRAVKILKKKKLRRIPNGEANVKKEIQLLRRLRHKNVIQLVDVLYNEEKQKMYMVMEYCVCGMQEMLDSVPEKRFPVCQAHGYFCQLIDGLEYLHSQGIVHKDIKPGNLLLTTGGTLKISDLGVAEALHPFAADDTCRTSQGSPAFQPPEIANGLDTFSGFKVDIWSAGVTLYNITTGLYPFEGDNIYKLFENIGKGSYAIPGDCGPPLSDLLKGMLEYEPAKRFSIRQIRQHSWFRKKHPPAEAPVPIPPSPDTKDRWRSMTVVPYLEDLHGADEDEDLFDIEDDIIETQDFTVPGQVPEEEASHNGQRRGLPKAVCMNGTEAAQLSTKSRAEGRAPNPARKACSASSKIRRLSACKQQ [Y362E]	0.99 ± 0.45
MEVVDPQQLGMFTEGELMSVGMDTFIHRIDSTEVIYQPRRKRAKLIGKYLMGDLLGEGSYGKVKEVLDSETLCRRAVKILKKKKLRRIPNGEANVKKEIQLLRRLRHKNVIQLVDVLYNEEKQKMYMVMEYCVCGMQEMLDSVPEKRFPVCQAHGYFCQLIDGLEYLHSQGIVHKDIKPGNLLLTTGGTLKIKDLGVAEALHPFAADDTCRTSQGSPAFQPPEIANGLDTFSGFKVDIWSAGVTLYNITTGLYPFEGDNIYKLFENIGKGSYAIPGDCGPPLSDLLKGMLEYEPAKRFSIRQIRQHSWFRKKHPPAEAPVPIPPSPDTKDRWRSMTVVPYLEDLHGADEDEDLFDIEDDIIYTQDFTVPGQVPEEEASHNGQRRGLPKAVCMNGTEAAQLSTKSRAEGRAPNPARKACSASSKIRRLSACKQQ [S193K]	0.0789 ± 0.12
MEVVDPQQLGMFTEGELMSVGMDTFIHRIDSTEVIYQPRRKRAKLIGKYLMGDLLGEGSYGKVKEVLDSETLCRRAVKILKKKKLRRIPNGEANVKKEIQLLVRLRHKNVIQLVDVLYNEEKQKMYMVMEYCVCGMQEMLDSVPEKRFPVCQAHGYFCQLIDGLEYLHSQGIVHKDIKPGNLLLTTGGTLKISDLGVAEALHPFAADDTCRTSQGSPAFQPPEIANGLDTFSGFKVDIWSAGVTLYNITTGLYPFEGDNIYKLFENIGKGSYAIPGDCGPPLSDLLKGMLEYEPAKRFSIRQIRQHSWFRKKHPPAEAPVPIPPSPDTKDRWRSMTVVPYLEDLHGADEDEDLFDIEDDIIYTQDFTVPGQVPEEEASHNGQRRGLPKAVCMNGTEAAQLSTKSRAEGRAPNPARKACSASSKIRRLSACKQQ [R103V]	0.764 ± 0.15
MEVVDPQQLGMFTEGELMSVGMDTFIHRIDSTEVIYQPRRKRAKLIGKYLMGDLLGEGSYGKVKEVLDSETLCRRAVKILKKKKLRRIPNGEANVKKEIQLLRRLRHKNVIQLVDVLYNEEKQKMYMVMEYCVCGMQEMLDSVPEKRFPVCQAHGYFCQLIDGLEYLHSQGIVHKDIKPGNLLLTTGGTLKISDLGVAEALHPFAADDTCRTSQGSPAFQPPEIANGLDTFSGFKVDIWSAGVTLYNITTGLYPFEGDNIYKLFENIGKGSYAIPGDCGPPLSDLLKGMLEYEPAKRFSIRQIRQHSWFRKKHPPAEAPVPIPPSPDTKDRWRSMTVVPYLEDLHGADEDSDLFDIEDDIIYTQDFTVPGQVPEEEASHNGQRRGLPKAVCMNGTEAAQLSTKSRAEGRAPNPARKACSASSKIRRLSACKQQ [E351S]	1.4 ± 0.14
